Data reported in patent US20110076730A1 (priority 2006, published 2011).
Where two headings read alike, the source gives them in different places.

Experiments:
[1] = assay type: biochemical; conditions: read-out: L-arabinose Km
[2] = assay type: biochemical; conditions: read-out: D-xylose Km
[3] = assay type: biochemical; conditions: pH 8.3
[4] = assay type: biochemical; conditions: read-out: Cofactor Km

Row | Molecule | Km [1] [µM] | Km [2] [µM] | D-fructose, D-galactose, D-mannose, 2-deoxy-D-glucose, D-glucose-6-phosphate and D-ribose as substrates [3] | Oxidation of D-xylose, L-arabinose and D-glucose into corresponding sugar acid [3] | Km [4] [µM]
1 | Xdh-B. fungorum: D-xylose dehydrogenase (Xdh) from Burkholderia fungorum LB400, protein RBU11704 in the ERGO database (protein, Burkholderia fungorum LB400, D-xylose dehydrogenase (Xdh) from Burkholderia fungorum LB400, protein RBU11704 in the ERGO database) MYLLSYPEQVDYPMSYAIYPSLSGKTVVITGGGSGIGAAMVEAFARQGARVFFLDVAEDDSLALQQSLSDAPHPPLFRRCDLRSVDAIHSAFAGIVEIAGPIEVLVNNAGNDDRHEVDAITPAYWDERMAVNLRHQFFCAQAAAAGMRKIGRGVILNLGSVSWHLALPNLAIYMSAKAGIEGLTRGLARDLGAAGIRVNCIIPGAVRTPRQMQLWQSPESEAKLVASQCLRLRIEPEHVARMALFLASDDASRCSGRDYFVDAGWYGE | 43000 | 970 | not the substrates | could be oxidized | 260
2 | Xdh-C. crescentus: D-xylose dehydrogenase (Xdh) from Caulobacter crescentus CB15, protein RC001012 in the ERGO database (protein, Caulobacter crescentus CB15, D-xylose dehydrogenase (Xdh) from Caulobacter crescentus CB15, protein RC001012 in the ERGO database) MSSAIYPSLKGKRVVITGGGSGIGAGLTAGFARQGAEVIFLDIADEDSRALEAELAGSPIPPVYKRCDLMNLEAIKAVFAEIGDVDVLVNNAGNDDRHKLADVTGAYWDERINVNLRHMLFCTQAVAPGMKKRGGGAVINFGSISWHLGLEDLVLYETAKAGIEGMTRALARELGPDDIRVTCVVPGNVKTKRQEKWYTPEGEAQIVAAQCLKGRIVPENVAALVLFLASDDASLCTGHEYWIDAGWR | 34000 | 99 | not the substrates | could be oxidized | 130
